Results from PMC4381924.
Where “and” joins values, the source holds several entries; their conditions need not be identical. Identical values can stand only once. Each block holds one substance with its values, some of them ahead of it.

Key:
IGF1R ECD-TM-fp (human) [1] = molecular target: IGF1R ECD-TM-fp (human)
IGF1R ECD-TM-fp (human) [2] = assay: FRET or BRET; quantitative imaging FRET (QI-FRET) in plasma-membrane vesicles derived from transfected CHO cells; intrinsic FRET corrected for proximity FRET and donor-to-acceptor ratio; with IGF1
IGF1R ECD-TM-fp (human) [3] = assay: FRET or BRET; spectrally resolved two-photon FRET on living, serum-starved CHO cells; mTurquoise donor, EYFP acceptor; FRET efficiency per membrane pixel; with IGF1
[4] = molecular target: IGF1R ECD-TM-fp H905C (human); assay: FRET or BRET; quantitative imaging FRET (QI-FRET) in plasma-membrane vesicles derived from transiently co-transfected CHO cells; EYFP donor, mCherry acceptor; confocal microscopy at room temperature; intrinsic FRET corrected for proximity FRET and donor-to-acceptor ratio; without IGF1
[5] = molecular target: IGF1R ECDΔL1-TM-fp (human); assay: as above
IGF1R TM-fp (human) = assay: FRET or BRET; spectrally resolved two-photon FRET on living, serum-starved CHO cells; mTurquoise donor, EYFP acceptor; FRET efficiency per membrane pixel; without IGF1
[6] = molecular target: IGF1R TM-icd H905C (human); assay: cross-linking; disulfide bond between introduced cysteines; HEK293 cells incubated with or without IGF1, lysed in RIPA buffer with 10 mM iodoacetamide; non-reducing against reducing SDS-PAGE, anti-IGF1Rβ Western blot

Sequence of IGF1R ECD-TM-fp (P08069 741-935): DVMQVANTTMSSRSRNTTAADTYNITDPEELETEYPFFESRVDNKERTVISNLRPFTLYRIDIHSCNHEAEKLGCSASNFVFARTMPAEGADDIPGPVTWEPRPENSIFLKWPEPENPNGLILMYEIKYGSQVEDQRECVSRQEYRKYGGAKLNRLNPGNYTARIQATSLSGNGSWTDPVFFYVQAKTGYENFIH
Sequence of IGF1 (P05019 49-118): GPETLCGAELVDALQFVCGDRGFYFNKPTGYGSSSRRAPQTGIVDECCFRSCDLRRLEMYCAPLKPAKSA

Substance: IGF1 (from UniProt P05019 49-118) (ligand)
FRET efficiency between co-transfected donor- and acceptor-tagged IGF1R ECD-TM-fp in membranes of live CHO cells, with against without ligand (IGF1R ECD-TM-fp (human) [1]): 2 fold

Substance: IGF1R ECD-TM-fp (domain or fragment)
intrinsic FRET efficiency (y intercept of a horizontal line) (IGF1R ECD-TM-fp (human) [2]): 0.34 | FRET efficiency per membrane pixel (peak of a normal distribution) (IGF1R ECD-TM-fp (human) [3]): 0.34

Substance: IGF1R ECD-TM-fp H905C (domain or fragment)
intrinsic FRET efficiency (y intercept of a horizontal line) [4]: 0.38

Substance: IGF1R ECDΔL1-TM-fp (domain or fragment)
intrinsic FRET efficiency (y intercept of a horizontal line) [5]: 0.36

Continued, values first:

FRET efficiency per membrane pixel (peak of a two state distribution) (IGF1R TM-fp (human)): 0.37 and 0.33
Substance: IGF1R TM-fp (domain or fragment)

stoichiometry N [6]: 2
Substance: IGF1R TM-icd H905C (domain or fragment)
